Measurements taken from patent US5496831, “Inhibition of insulin-induced adiposis” (The General Hospital Corporation).

Tests used:
[1] = target: T1, GST-RBAP-1 (E2F-1) (UniProt Q01094 Q01094:1-437); assay: competition; competitor vs labelled IRE-A; settings: tags: GST fusion, bacterial expression, glutathione Sepharose purified; label: 32P when used as probe
Procedure: (§1) FIG. 4C is an electrophoretic mobility shift assay showing IRP-A and GST-RBAP-1 complexes with IRE-A DNA. GST-RBAP-1 (lanes 1–3) or nuclear proteins isolated from fasted-refed liver nuclear extract (lanes 4–6) were incubated with ^32P-labelled IRE-A DNA in the presence of: lanes 1 and 4, mutant IRE-A DNA (GC→TA); lanes 2 and 5, wild-type E2 DNA; and, lanes 3 and 6, mutant E2 DNA (GC→TA) as described above.
(§2) The EMSA procedure has been described previously (Nasrin, et al., Proc. Natl. Acad. Sci. USA, 87:5273–5277, 1990). Nuclear extract or GST-RBAP-1 was incubated with 0.25–0.5 ng of ^32P-labelled oligo in 20 μl of binding buffer containing 10 mM HEPES (pH 7.9), 0.1 mM EDTA, 10 mM MgCl_2, 5 mM KCl, 150 mM NaCl, 25 mM DTT and 250 ng of poly(dI)poly(dC). The reaction products were separated at 4° C. in a 4.5% polyacrylamide gel run in 50 mM Tris-HCL (pH 8.5), 380 mM glycine and 2 mM EDTA. The gel was dried and exposed to film. The sequences of the oligonucleotides used to characterize IRE-A-like and E2F-like DNA binding activities are shown. Cognate E2F sites include E2F wild-type, 5'-[…]-[…]-3' (SEQ ID NO: 4); E2F mutant, 5'-ATT-[…]-3' (SEQ ID NO: 5); DRTF wild-type, 5'-[…]-3' (SEQ ID NO: 6). The GAPDH IRE-A used for gel shifts included nucleotides −487 to −408 of the promoter (Nasrin, et al., Proc. Natl. Acad. Sci. USA, 87:5273–5277, 1990). […]

[2] = target: T1, GST-RBAP-1 (E2F-1); assay: competition; mutant competitor vs labelled IRE-A; settings: tags: GST fusion, bacterial expression, glutathione Sepharose purified
Procedure: as §1, §2

[3] = target: E2F-1 (UniProt Q01094 Q01094:1-437); assay: cell_activity; CAT stimulation by CMV-E2F in L6 muscle cells; tetramer on minimal GAPDH promoter; settings: tags: CMV-E2F expression plasmid
E2F-1, sequence (Q01094 whole entry, one chain of several): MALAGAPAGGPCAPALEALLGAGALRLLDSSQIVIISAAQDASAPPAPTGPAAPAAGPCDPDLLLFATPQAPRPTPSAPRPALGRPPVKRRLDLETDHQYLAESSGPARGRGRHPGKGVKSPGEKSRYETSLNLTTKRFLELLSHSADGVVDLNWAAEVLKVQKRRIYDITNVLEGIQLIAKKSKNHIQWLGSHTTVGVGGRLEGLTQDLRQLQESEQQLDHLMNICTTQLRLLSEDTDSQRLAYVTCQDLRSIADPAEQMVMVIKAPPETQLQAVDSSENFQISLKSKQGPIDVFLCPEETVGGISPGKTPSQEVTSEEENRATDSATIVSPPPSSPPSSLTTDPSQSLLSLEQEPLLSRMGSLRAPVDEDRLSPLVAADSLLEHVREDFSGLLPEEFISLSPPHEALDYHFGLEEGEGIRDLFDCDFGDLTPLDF

T1 sequence (Q01094 whole entry, the tested form may be a part, one chain of several): as the sequence (Q01094 whole entry, one chain of several) above

B1: E2 (cognate E2F site) wild-type (dsDNA)
DNA 1: ATTTAAGTTTCGCGCCCTTTCTCAA
DNA 2: TTGAGAAAGGGCGCGAAACTTAAAT
binding result [1]: binds

B2: E2 mutant (GC to TA) (dsDNA)
DNA 1: ATTTAAGTTTCGATCCCTTTCTCAA
DNA 2: TTGAGAAAGGGATCGAAACTTAAAT
binding result [2]: no binding

B3: IRE-A minimal motif tetramer-CAT (dsDNA)
DNA 1: AAGTTCCCCAACTTTCCCGCCTCTCAGCCTTTGAAAG
DNA 2: CTTTCAAAGGCTGAGAGGCGGGAAAGTTGGGGAACTT
activity [3]: 7 fold
